# Experimental data as given in patent US20170266276A1, “Combination Therapy For Treatment of Cancer” (OncoMed Pharmaceuticals, Inc., priority 2014, published 2017).
# B1: OMP-131R010: anti-RSPO3 antibody; heavy chain variable region SEQ ID NO:38, light chain variable region SEQ ID NO:39; plasmids ATCC PTA-120420 and PTA-120421 (antibody, V domains shown)
# VH: QVQLVQSGAEVKKPGASVKVSCKASGYTFTDYSIHWVRQAPGQGLEWIGYIYPSNGDSGYNQKFKNRVTMTRDTSTSTAYMELSRLRSEDTAVYYCATYFANNFDYWGQGTTLTVSS
# VL: DIQMTQSPSSLSASVGDRVTITCKASQSVDYDGDSYMNWYQQKPGKAPKLLIYAASNLESGVPSRFSGSGSGTDFTLTISPVQAEDFATYYCQQSNEDPLTFGAGTKLELKR
# notes: anti-RSPO3 antibody; plasmids ATCC PTA-120420 and PTA-120421
# Assays:
# [1] = tested on: OMP-C8 colon tumor cells; assay: OMP-C8 colorectal tumor xenograft model, tumor volume; format: in vivo, NOD/SCID mice; details: for tumor growth inhibition, staggered vs same-day dosing: OMP-131R010 25 mg/kg every other week, compared with dosing on the same day
# Description: FIGS. 3A and 3B. Inhibition of colorectal tumor growth in vivo by a RSPO-LGR pathway inhibitor in combination with chemotherapeutic agents. OMP-C8 colorectal tumor cells were injected subcutaneously into NOD/SCID mice. FIG. 3A. Mice were treated with control antibody (-▪-), nab-paclitaxel (ABRAXANE) (-Δ-), a combination of nab-paclitaxel and anti-RSPO3 antibody 131R010 administered the same day (-[…]-), or a combination of nab-paclitaxel plus anti-RSPO3 antibody 131R010, wherein 131R010 was administered 2 days prior to nab-paclitaxel (-▾-). Antibodies were dosed every other week at 25 mg/kg. Nab-paclitaxel was dosed once a week at 30 mg/kg. Tumor volumes were measured on the indicated days post-treatment. FIG. 3B. Mice were treated with control antibody (-▪-), 5-FU and irinotecan (-◯-), a combination of 5-FU, irinotecan, and anti-RSPO3 antibody 131R010 administered the same day (-▴-), or a combination of 5-FU and irinotecan plus anti-RSPO3 antibody 131R010, wherein 131R010 was administered 2 days prior to 5-FU and irinotecan (-⋄-). Antibodies were dosed every other week at 25 mg/kg. 5-FU and irinotecan were dosed at 50 mg/kg and 5 mg/kg, respectively, once a week. Tumor volumes were measured on the indicated days post-treatment.
# (§1) OncoMed xenograft models described herein were established at OncoMed Pharmaceuticals from minimally passaged, patient-derived tumor specimens. The tumor specimens were examined by a pathologist and classified as a specific tumor type. OncoMed relies on these classifications unless further analyses are done on any specific tumor and a reclassification is deemed necessary.
# Single cell suspensions of xenograft OMP-C8 colon tumor cells (5×10^4 cells) were injected subcutaneously into NOD/SCID mice. OMP-C8 colon tumor cells comprise an inactivating mutation in the APC gene and express low levels of RSPO3 (data not shown). Tumors were allowed to grow 23 days until they reached an average volume of approximately 100 mm^3. Tumor-bearing mice were randomized into four groups (n=9 animals per group). […] Tumor volumes were measured on the indicated days post-treatment.
# [2] = tested on: OMP-LU77 lung tumor cells; assay: OMP-LU77 lung tumor xenograft model, tumor volume; format: in vivo, NOD/SCID mice
# Description: FIG. 2. Inhibition of lung tumor growth in vivo by a RSPO-LGR pathway inhibitor in combination with a chemotherapeutic agent. OMP-LU77 lung tumor cells were injected subcutaneously into NOD/SCID mice. Mice were treated with control antibody (-▪-), paclitaxel (-▴-), a combination of paclitaxel and anti-RSPO3 antibody 131R010 (also referred to as OMP-131R10) administered the same day (-▾-), or a combination of paclitaxel plus anti-RSPO3 antibody 131R010, wherein 131R010 was administered 2 days prior to paclitaxel (-[…]-). Antibodies were dosed every three weeks at 25 mg/kg. Taxol was dosed every three weeks at 20 mg/kg. Tumor volumes were measured on the indicated days post-treatment.
# as §1
# Single cell suspensions of xenograft OMP-LU77 lung tumor cells (5×10^4 cells) were injected subcutaneously into NOD/SCID mice. Tumors were allowed to grow 34 days until they reached an average volume of approximately 125 mm^3. […] Tumor volumes were measured on the indicated days post-treatment.
# [3] = tested on: xenograft models; assay: Several xenograft models (summary of Examples 1-3); format: in vivo
# [4] = tested on: OMP-OV19 ovarian tumor cells; assay: OMP-OV19 ovarian tumor xenograft model, tumor volume; format: in vivo, NOD/SCID mice
# Description: FIGS. 1A and 1B. Inhibition of ovarian tumor growth in vivo by a RSPO-LGR pathway inhibitor in combination with a chemotherapeutic agent. OMP-OV19 ovarian tumor cells were injected subcutaneously into NOD/SCID mice. FIG. 1A. Mice were treated with control antibody (-[…]-), paclitaxel (-▪-), a combination of paclitaxel plus anti-RSPO3 antibody 131R010 (also referred to as OMP-131R10) administered the same day (-▴-), or a combination of paclitaxel plus 131R010, wherein 131R010 was administered 2 days prior to paclitaxel (-▾-). Antibodies were dosed at 25 mg/kg and administered every other week. Paclitaxel was dosed at 20 mg/kg and administered every other week. Tumor volumes were measured on the indicated days post-treatment and shown as the mean±SEM. FIG. 1B. Tumor volumes of individual animals in the two combination treatment groups on Day 61.
# OncoMed xenograft models described herein were established at OncoMed Pharmaceuticals from minimally passaged, patient-derived tumor specimens. The tumor specimens were examined by a pathologist and classified as a specific tumor type. […]
# Single cell suspensions of xenograft OMP-OV19 ovarian tumor cells (1×10^5 cells) were injected subcutaneously into NOD/SCID mice. […] Tumor volumes were measured on the indicated days post-treatment and are shown as the mean±SEM in FIG. 1A.
molecule,measurement,setting,value
B1,"tumor growth inhibition, staggered vs same-day dosing",[1]; given two days prior to fluorouracil 50 mg/kg and irinotecan 5 mg/kg weekly,did not result in greater tumor growth inhibition than dosing on the same day
same,"tumor growth inhibition, staggered vs same-day dosing",[1]; given two days prior to nab-paclitaxel 30 mg/kg weekly,greater tumor growth inhibition than dosing on the same day
same,"efficacy in inhibiting tumor growth, vs combination with a non-mitotic-inhibitor chemotherapeutic agent","[1]; OMP-131R010 and nab-paclitaxel administered in a sequential manner, compared with OMP-131R010 plus fluorouracil and irinotecan",greater efficacy in inhibiting tumor growth
same,"tumor growth inhibition, staggered vs same-day dosing","[2]; OMP-131R010 25 mg/kg given two days prior to paclitaxel 20 mg/kg, both once every three weeks, compared with dosing on the same day",greater tumor growth inhibition than dosing on the same day
same,tumor size over the course of the treatment,"[2]; staggered administration: OMP-131R010 25 mg/kg two days prior to paclitaxel 20 mg/kg, once every three weeks",decreased tumor size
same,"inhibition of tumor growth, staggered vs co-administration","[3]; OMP-131R010 administered prior to a taxane, compared with co-administration",better at inhibiting tumor growth
same,inhibition of tumor growth by the combination,[3]; combination of OMP-131R010 and a taxane,effective at inhibiting tumor growth
same,tumor size over the course of the treatment,[3]; staggered administration of OMP-131R010 and taxane,decreased tumor size
same,"tumor growth inhibition, staggered vs same-day dosing","[4]; OMP-131R010 25 mg/kg every other week, given two days prior to paclitaxel 20 mg/kg every other week, compared with dosing on the same day",greater tumor growth inhibition than dosing on the same day
same,tumor size over the course of the treatment,"[4]; staggered administration: OMP-131R010 25 mg/kg two days prior to paclitaxel 20 mg/kg, every other week",decreased tumor size
